How the values were obtained:
[1] = biological target: T1, factor VIIIa (Homo sapiens, UniProt P00451); test: inhibition of Xa generation by active site-blocked (DEGR) IXa proteins, presence of phospholipid (Kd,app for VIIIa); assay type: biochemical
T1 construct: purchased Dr. Leon Hoyer (American Red Cross, Rockville, Md.)
T1 sequence (P00451 20-759 limits assumed): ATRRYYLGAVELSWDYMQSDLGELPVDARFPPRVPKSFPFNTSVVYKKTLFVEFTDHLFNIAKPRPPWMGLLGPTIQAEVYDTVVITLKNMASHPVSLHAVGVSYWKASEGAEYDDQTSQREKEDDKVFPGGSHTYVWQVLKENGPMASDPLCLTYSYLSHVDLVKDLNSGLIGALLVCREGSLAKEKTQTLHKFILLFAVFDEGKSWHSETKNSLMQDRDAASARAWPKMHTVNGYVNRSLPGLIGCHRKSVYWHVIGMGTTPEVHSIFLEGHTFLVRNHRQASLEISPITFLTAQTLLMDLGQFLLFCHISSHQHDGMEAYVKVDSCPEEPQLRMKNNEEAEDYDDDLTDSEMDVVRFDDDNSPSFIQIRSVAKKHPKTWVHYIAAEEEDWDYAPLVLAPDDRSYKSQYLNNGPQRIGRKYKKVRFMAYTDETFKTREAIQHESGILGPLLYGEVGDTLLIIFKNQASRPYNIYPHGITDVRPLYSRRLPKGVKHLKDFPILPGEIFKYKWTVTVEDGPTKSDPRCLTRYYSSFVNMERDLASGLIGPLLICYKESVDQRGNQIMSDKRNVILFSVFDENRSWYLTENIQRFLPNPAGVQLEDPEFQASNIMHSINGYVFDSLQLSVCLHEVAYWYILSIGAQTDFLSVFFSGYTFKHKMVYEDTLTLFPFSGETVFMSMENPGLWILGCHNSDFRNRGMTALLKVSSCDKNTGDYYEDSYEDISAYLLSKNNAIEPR
T1 sequence (P00451 1668-2351 limits assumed): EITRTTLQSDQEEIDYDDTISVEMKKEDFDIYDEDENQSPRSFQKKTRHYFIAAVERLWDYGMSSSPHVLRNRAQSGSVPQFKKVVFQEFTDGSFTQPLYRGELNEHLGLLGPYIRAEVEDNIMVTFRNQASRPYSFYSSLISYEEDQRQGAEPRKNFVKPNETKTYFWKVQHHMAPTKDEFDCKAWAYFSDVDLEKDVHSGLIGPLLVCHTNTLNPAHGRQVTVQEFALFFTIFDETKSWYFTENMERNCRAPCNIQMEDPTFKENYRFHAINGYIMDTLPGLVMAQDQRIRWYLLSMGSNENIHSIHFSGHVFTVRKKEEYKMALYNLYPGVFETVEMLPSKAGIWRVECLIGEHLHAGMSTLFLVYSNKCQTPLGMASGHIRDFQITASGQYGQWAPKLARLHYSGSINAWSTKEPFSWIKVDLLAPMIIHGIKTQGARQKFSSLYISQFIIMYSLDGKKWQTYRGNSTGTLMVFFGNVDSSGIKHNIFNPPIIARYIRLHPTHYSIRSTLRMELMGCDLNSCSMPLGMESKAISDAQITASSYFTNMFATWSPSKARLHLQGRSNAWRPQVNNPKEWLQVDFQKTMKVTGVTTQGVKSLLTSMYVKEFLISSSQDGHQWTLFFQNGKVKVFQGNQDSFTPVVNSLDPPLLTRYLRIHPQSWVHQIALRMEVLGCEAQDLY
Experimental: (§1) Apparent Kds of factor VIIIa binding to various active site-blocked factor IXa proteins were determined from inhibition experiments as detailed in Mathur et al., 1997, supra. […] Reactions were carried out for 2 min and the rates of factor X activation were measured as outlined above.
(§2) Various DEGR-ck-inhibited factor IXa proteins were prepared for these experiments as follows. IXNP, IXWT, and each mutant factor IX at 200 μg/ml was activated by factor XIa (2 μg/ml) for 90 min. in TBS, pH 7.4 (0.05 M Tris, 0.15 M NaCl, pH 7.4) containing 5 mM Ca^2+.
(§3) Enzymol. 74, 481–508 given below:
(§4) [formula] where y is the rate of Xa formation in the presence of a given concentration of DEGR-IXa protein represented by x, a is the maximum rate of Xa formation in the absence of DEGR-IXa, and s is the slope factor. Each point was weighted equally and the data were fitted to Equation 1 using the nonlinear regression analysis program obtained from Erithacus Software (GraFit). […] To obtain the Kd,app values for the interaction of DEGR-IXa proteins with factor VIIIa, the following equation was used, as described by Cheng and Prusoff, 1973, Biochem. Pharmacol. 22, 3099–3108 and further discussed by Craig, 1993, Trends Pharmacol. Sci. 6, 68–71.

[2] = biological target: T1, factor VIIIa; test: inhibition of Xa generation by active site-blocked (DEGR) IXa proteins, absence of phospholipid (Kd,app for VIIIa); assay type: biochemical
Experimental: as §1, §2, §3, §4

“IXaV331A: activated factor IX mutant V331A” was tested, and the Kd ([1]; active site-blocked (DEGR) IXa proteins, 10 μM phospholipid, read-out: Kd, app for interaction with factor VIIIa, PL-plus system) was 0.00061 ± 8e-05 µM, the “fold-reduction in affinity for factor VIIIa compared with DEGR-IXaWT” value ([1]; presence of phospholipid) was 11 fold and the “fold-reduction in affinity for factor VIIIa compared with DEGR-IXaWT” value ([2]; absence of phospholipid) was 7 fold. The Kd ([2]; active site-blocked (DEGR) IXa proteins, no phospholipid, read-out: Kd, app for interaction with factor VIIIa, PL-minus system) was 1.35 ± 0.31 µM.

Source: patent US7109170B2, “Region of factor IXa protease domain that interacts with factor VIIIa and methods therefor” (Saint Louis University, priority 1999, dated 2006)
